Assay results published in PMC12658102 (2025).

Tests used:
[1] = biological target: TDP-43 C-terminal domain, wild type (human); assay: AUC; sedimentation velocity, 25 °C, 50,000 rpm, absorbance at 280 nm, solution without salt; WT CTD at 33, 58 and 107 µM; c(s) analysis and global Lamm equation modelling of the 58 and 107 µM data (SEDPHAT), monomer-dimer-tetramer model (steps: dimer to monomers; tetramer to dimers); monomer-tetramer model fits similarly
TDP-43 CTD F316A = assay: NMR chemical shift perturbation (15N CSP) as a function of protein concentration; details: pH 6.1, without salt; 90 μM vs 20 μM protein; read off a plot
TDP-43 CTD L330A = assay: as above; details: pH 6.1, without salt; 90 μM vs 20 μM protein; read off a plot
TDP-43 CTD M323A = assay: as above; details: pH 6.1, without salt; 90 μM vs 20 μM protein; read off a plot
TDP-43 CTD M339A = assay: as above; details: pH 6.1, without salt; 90 μM vs 20 μM protein; read off a plot
TDP-43 CTD Q343A = assay: as above; details: pH 6.1, without salt; 90 μM vs 20 μM protein; read off a plot
TDP-43 CTD S317A = assay: as above; details: pH 6.1, without salt; 90 μM vs 20 μM protein; read off a plot
TDP-43 CTD S342A = assay: as above; details: pH 6.1, without salt; 90 μM vs 20 μM protein; read off a plot
[2] = biological target: TDP-43 CTD S→E S305C cross-linked (human) (UniProt Q13148); assay: AUC; dimer-tetramer; details: domain or fragment
[3] = biological target: TDP-43 CTD S→E S305C cross-linked (human) (UniProt Q13148); assay: AUC; tetramer-octamer; details: domain or fragment
[4] = biological target: TDP-43 CTD S→E S317C cross-linked (human) (UniProt Q13148); assay: AUC; dimer-tetramer, isotherm fit (dimer concentration units); details: domain or fragment
[5] = biological target: TDP-43 CTD S→E S317C cross-linked (human) (UniProt Q13148); assay: AUC; dimer-tetramer, global Lamm equation modeling; details: domain or fragment
[6] = biological target: the molecule itself; assay: analytical ultracentrifugation (SEDPHAT)

Molecule: TDP-43 C-terminal domain, wild type (domain or fragment)
- Kd,dim-tet (dimer-tetramer step) [1]: 2.7 µM
- Kd,mon-dim (monomer-dimer step) [1]: 2400 µM
- ceq (concentration for equal population of monomer and tetramer) [1]: 250 to 300 µM
- stoichiometry N [1]: 4

Molecule: TDP-43 C-terminal domain, wild type F316A
- ratio to parent (TDP-43 CTD F316A): 0.27

Molecule: TDP-43 C-terminal domain, wild type L330A
- ratio to parent (TDP-43 CTD L330A): 0.13

Molecule: TDP-43 C-terminal domain, wild type M323A
- ratio to parent (TDP-43 CTD M323A): 0.19

Molecule: TDP-43 C-terminal domain, wild type M339A
- ratio to parent (TDP-43 CTD M339A): 0.63

Molecule: TDP-43 C-terminal domain, wild type Q343A
- ratio to parent (TDP-43 CTD Q343A): 1.2

Molecule: TDP-43 C-terminal domain, wild type S317A
- ratio to parent (TDP-43 CTD S317A): 1.2

Molecule: TDP-43 C-terminal domain, wild type S342A
- ratio to parent (TDP-43 CTD S342A): 1.1

Molecule: TDP-43 CTD S→E S305C cross-linked (from UniProt Q13148)
- Kd [2]: 58 µM
- Kd [3]: 4.7 µM

Molecule: TDP-43 CTD S→E S317C cross-linked (from UniProt Q13148)
- Kd [4]: 45 µM
- Kd [5]: 46 µM

Molecule: NPAMMAAAQAALQSSWGMMGMLA [TDP-43 dimer CTD conserved region]
- Kd [6]: 2.7 µM

Molecule: NPAMMAAAQAALQSSWGMMGMLA [TDP-43 CTD conserved region]
- Kd [6]: 2400 µM
